Experimental data: the supplement of paper PMC10567573
± gives the standard deviation.

Experiment: protein stability index of a GFP-peptide fusion (GPS, HEK-293T) (PSI 1-6); higher = more stable
[1] = treatment: DMSO, c terminus: a fixed tail appended
[2] = treatment: MLN4924 1 uM, 8 h, c terminus: a fixed tail appended
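Further: 24-mer peptide tiles fused after GFP, lentivirally expressed, FACS-sorted into six equal bins by GFP/DsRed ratio, decoded by Illumina sequencing, PSI is the read-weighted mean bin number.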

Sequence | protein stability index [1] | protein stability index [2] | protein stability index (treatment: DMSO, c terminus: native) | protein stability index (treatment: MLN4924 1 uM, 8 h, c terminus: native)
EIQVDSEEPVFEAVINWVKHAKKE [KLHL12] | 3.57 ± 0.4 | 3.92 ± 0.95 |  | 
EISVDSLDFSKKILHTAWHPSENI [PPP2R2B] | 2.28 ± 0.26 | 2.41 ± 0.21 |  | 
EKEKHVNQLQTKVAVLEQEIKDKD [SASS6] | 5.38 ± 0.12 | 5.53 ± 0.14 |  | 
EKLKEKLKMKEREEAWVKIENLAK [PPP2R5C] | 2.54 ± 0.6 | 2.48 ± 0.39 |  | 
EKSQAYPRRRRPGCYAYRQNPEAI [MYORG] | 3.34 ± 0.27 | 3.32 ± 0.14 |  | 
ELDLRLRLAQPSSPEVLTPQLSPG [RTN2] | 4.23 ± 0.24 | 4.22 ± 0.15 |  | 
ELQGFWMDIGQPKDFLTGMCLFLQ [GMPPB] | 2.19 ± 0.25 | 2.01 ± 0.35 |  | 
ELQRQKEAEKLERQLALPATEQAA [NOP53] | 5.14 ± 0.34 | 5.42 ± 0.31 |  | 
ELVKSGVLGADGVCMTFMKQIAGG [INTS3] | 2.27 ± 0.52 | 2.49 ± 0.068 |  | 
EMAATPAGFAQLTHLLMGLAGGKL [HDAC6] | 2.26 ± 0.39 | 2.39 ± 0.22 |  | 
EMMSQALKATFSGFTKEQQRLGIP [ETS1] | 2.35 ± 0.28 | 2.49 ± 0.2 |  | 
EMRQALQALLKENRLLQEENRTLQ [CBY2] | 2.53 ± 0.45 | 2.65 ± 0.41 |  | 
EMSRGEQDLIEDLKLARKAYHDPM [NET1] | 4.5 ± 0.27 | 4.47 ± 0.33 |  | 
ENCERREAFWAEWKDLTLSTRPEE [TCAP] | 4.53 ± 0.097 | 4.68 ± 0.2 |  | 
ENLLLASKLKGAAVKLADFGLAIE [CAMK2A] | 2.35 ± 0.25 | 2.7 ± 0.29 |  | 
EPTETLLSEKEINAREESLVEELS [BCL2L13] | 5.46 ± 0.12 | 5.55 ± 0.26 |  | 
EPVTLETPAFMFRLDASTSHQNLR [FSD1] | 3.6 ± 0.35 | 3.83 ± 0.2 |  | 
EQNIIPSATNVTCYYQPAPYVSDG [TENT5C] | 3.43 ± 0.4 | 3.63 ± 0.32 |  | 
EQQNQEYKILLDVKTRLEQEIATY [KRT17] | 3.44 ± 0.34 | 3.59 ± 0.56 |  | 
EQVFNAVMAWVKYSIQERRPQLPQ [KLHL20] | 2.75 ± 0.67 | 2.35 ± 0.68 |  | 
ERDTLSIRESRLFGAVVRWAEAEC [BTBD1] | 3.13 ± 0.21 | 3.12 ± 0.34 |  | 
ERETEATRGRGGLLRDHIPRGKEE [MOG] | 5.38 ± 0.38 | 5.18 ± 0.41 |  | 
ERLLCPSLLAGTADGSLRMDDPKG [M1AP] | 4.74 ± 0.3 | 4.71 ± 0.3 |  | 

Sequence | protein stability index [1] | protein stability index [2] | protein stability index (treatment: DMSO, c terminus: native) | protein stability index (treatment: MLN4924 1 uM, 8 h, c terminus: native)
ERRHREEKERRKKQQWEIMHKHNE [RSPH3] | 4.8 ± 0.23 | 4.65 ± 0.28 |  | 
ESQLDPSNCLGIRDFAETHNCVDL [KLHL12] | 3.9 ± 0.45 | 4.26 ± 0.49 |  | 
ESQSTSLRGSYNSLHDGSDGLDGI [LURAP1L] | 4.91 ± 0.11 | 4.68 ± 0.17 |  | 
ESSLGSESEEEEEFYDADEETQMI [SLC22A15] | 5.05 ± 0.24 | 4.88 ± 0.3 |  | 
ESTIVELGSIFQQLAHMVKEQEET [STX5] | 2.4 ± 0.7 | 3.25 ± 0.094 |  | 
ESVVSSAVPAAATRTTSFKGTSPS [KCTD10] | 5.09 ± 0.056 | 5.25 ± 0.21 |  | 
ESYFTTRTYGEPESAGPSRAVRQS [EMD] | 4.62 ± 0.26 | 4.57 ± 0.18 |  | 
ETAEEVSARIVQVVTAEAVAVLKG [MAP2] | 3.36 ± 0.27 | 3.45 ± 0.34 |  | 
ETILHFFVQILLALHHVHTHLILH [NEK8] | 3.19 ± 0.44 | 3.31 ± 0.29 |  | 
ETVTVTVGPAEPTLVNFHLKRSIP [CPN1] | 3.02 ± 0.3 | 3.16 ± 0.2 |  | 
EVGPQEINKEELEGNSMRCGRKLA [GMCL1] | 4.75 ± 0.48 | 4.76 ± 0.3 |  | 
EVSLDSLDLRVKGILSSQAEGLAN [EHMT1] | 4.18 ± 0.19 | 4.05 ± 0.42 |  | 
EVVPIHGRGNFPTLEITLKDIVQT [TENT5C] | 3.5 ± 0.31 | 3.39 ± 0.27 |  | 
EWIKLDYHRRHNPKTNEDFEFLYN [IQUB] | 2.12 ± 0.19 | 2.24 ± 0.18 |  | 
EWLLDAPELPEGHLEDWLEKRAKR [ZMAT5] | 4.95 ± 0.52 | 4.79 ± 0.15 |  | 
EWPEYFMAVAFLSAQRSKDPNSQV [DCTD] | 2.35 ± 0.26 | 2.06 ± 0.48 |  | 
FARHIKKSEGQKIPKVELQISIYG [GULP1] | 2.06 ± 0.41 | 1.9 ± 0.26 |  | 
FDETSSATTISTSEDGSYGTDVTR [KMT2E] | 5.34 ± 0.24 | 5.49 ± 0.17 |  | 
FDPLPPSDTIYSYVRPERLSPISH [TCF25] | 3.07 ± 0.17 | 3.14 ± 0.42 |  | 
FDVAFIGSIMTVWLSTAPTEPLTH [CARM1] | 3.24 ± 0.64 | 2.88 ± 0.53 |  | 
FELDLGKKVLNLLKGAFPARLKKV [PTPN9] | 2.84 ± 1.1 | 2.34 ± 0.59 |  | 
FGGNPRFLSLHRAHLGEEAHKCLE [ZNF263] | 2.47 ± 0.5 | 3.14 ± 0.61 |  | 
FGQQDWKFLASHFPNRTDQQCQYR [MYBL2] | 2.62 ± 0.36 | 3.08 ± 0.27 |  | 

Sequence | protein stability index [1] | protein stability index [2] | protein stability index (treatment: DMSO, c terminus: native) | protein stability index (treatment: MLN4924 1 uM, 8 h, c terminus: native)
FHALVREIRRKEKEAVLAMEKKSK [RIT1] | 2.52 ± 0.6 | 3.07 ± 0.57 |  | 
FHYIPGTDILDLENQRENLEQPFL [PLEKHN1] | 2.92 ± 0.58 | 3.09 ± 0.16 |  | 
FIAVTSYQNHKITQLKIENNPFAK [TBX5] | 2.12 ± 0.28 | 2.27 ± 0.53 |  | 
FKEVKEKFKGWVSYSTSEQAELSY [DLC1] | 3.13 ± 0.27 | 2.87 ± 0.31 |  | 
FKKQIWLLFEYPESSSPARGIAIV [KCNA4] | 2.74 ± 0.17 | 2.42 ± 0.3 |  | 
FLDWLRTNPDLIIVCAQSSQSLWN [SMG5] | 2.5 ± 0.41 | 2.36 ± 0.41 |  | 
FLFQKPGDKYEHHSYMGMRGFCAF [POMT2] | 2.55 ± 0.75 | 1.99 ± 0.22 |  | 
FLHSLVQFLFIYQLPFCGPNVIDN [OR4A15] | 2.89 ± 0.32 | 3.48 ± 0.26 |  | 
FLLDVIPVDGARYRWQGRRWEPSG [TBX6] | 1.81 ± 0.33 | 2.4 ± 0.3 |  | 
FLTAPLLEFLLALYFLFADAMQLN [CMTM3] | 2.94 ± 0.29 | 3.17 ± 0.3 |  | 
FLTFDKQVLRFYAIWDDTDSMYGE [EFHC1] | 2.49 ± 0.41 | 2.46 ± 0.55 |  | 
FLTSRTRALLRRFPRMLLVDRLPG [ZSWIM9] | 2.57 ± 0.56 | 2.41 ± 0.39 |  | 
FMKYVDSNLCCFIPGKVIDEIYRV [FBXO28] | 2.99 ± 0.91 | 2.65 ± 0.4 |  | 
FNYELVKSWLNGFRPKDQTSVGMS [SLC25A39] | 1.95 ± 0.32 | 1.97 ± 0.3 |  | 
FPRKSELTEHQRIHTGIKPHQCSE [ZNF649] | 3.92 ± 0.23 | 4.24 ± 0.18 |  | 
FQARLSGNNLHNASIPEHLAYGSV [POMT2] | 2.63 ± 0.21 | 2.95 ± 0.29 |  | 
FQDAIFPDTQENRRMFSSLFQFSN [CCDC3] | 2.38 ± 0.43 | 2.58 ± 0.37 |  | 
FRENGRNCKRERDARVKRKLRGPE [TBX6] | 3.92 ± 0.3 | 4.05 ± 0.22 |  | 
FRIFIIWAISSWFRRGPAPQDQAG [CLPTM1] | 2.23 ± 0.2 | 1.87 ± 0.28 |  | 
FRPGHLLANACLPVRTTNKISKQF [ZSWIM9] | 2.78 ± 0.12 | 2.8 ± 0.19 |  | 
FRQFGYQDSPGPREAVSQLRELCR [ZNF24] | 3.37 ± 0.17 | 3.38 ± 0.15 |  | 
FRQYCGAACTCHVRNPLSACSIM [RNF208] |  |  | 2.09 ± 0.19 | 2.18 ± 0.2
FRVVDCDQFTQVFLESQGIELNPP [EFHC1] | 2.01 ± 0.14 | 2.27 ± 0.17 |  | 

Sequence | protein stability index [1] | protein stability index [2] | protein stability index (treatment: DMSO, c terminus: native) | protein stability index (treatment: MLN4924 1 uM, 8 h, c terminus: native)
FSDIPSPYLRGTIKMMQAVRQAFQ [GFOD1] | 2.38 ± 0.2 | 2.17 ± 0.17 |  | 
FSPANPESSMEDCLAHLGEKVSQE [BCL2L13] | 5.2 ± 0.38 | 5.39 ± 0.16 |  | 
FSSLNHIVEKRVLAHLAPLFDNPK [INTS3] | 2.27 ± 0.18 | 2.4 ± 0.44 |  | 
FTLNFFRSGIQFGSWGSFQLPGLL [CLCN6] | 2.93 ± 0.36 | 3.02 ± 0.97 |  | 
FVEDSFDPNINPTIGASFMTKTVQ [RAB22A] | 2.97 ± 0.27 | 3.34 ± 0.46 |  | 
FVKALDDLHKMNHVTPPNVSLGAT [JUNB] | 2.43 ± 0.34 | 2.94 ± 0.49 |  | 
FVWYTPPTFMIAVFLPIVVLIFKS [STEAP1] | 3.33 ± 1.6 | 2.81 ± 1.2 |  | 
FWLQNSSPSSDRVSAIIWEGNECK [PHTF1] | 2.41 ± 0.32 | 3.07 ± 0.4 |  | 
FYGLLFTSENLKLVHIVCHKKTTH [DFFB] | 2.73 ± 0.56 | 2.58 ± 0.31 |  | 
FYHYFEDKENIYILLEYCSRRSMA [PLK2] | 2.34 ± 0.53 | 2.21 ± 0.27 |  | 
GADNIDVSHPIIYRGAVYADNMEF [FEM1B] | 3.11 ± 0.17 | 3.21 ± 0.48 |  | 
GAGFGGGLGAGFGGGFAGGDGLLV [KRT16] | 2.58 ± 0.82 | 2.46 ± 0.92 |  | 
GAMLGQTTSEEAVGGATPDQTTSE [HDAC6] | 4.91 ± 0.58 | 5.59 ± 0.073 |  | 
GAQPCLLLPIVPLSWLVWLLLLLL [ADAMTS4] |  | 2.67 ± 1.3 |  | 
GCALTTFSVLEGEKNNHRAKDLRA [SOAT1] | 3.49 ± 0.52 | 3.83 ± 0.63 |  | 
GCLKMNPDDRLTCSQLLESSYFDS [CDKL4] | 3.4 ± 0.45 | 3.54 ± 0.21 |  | 
GDKYEHHSYMGMRGFCAFLGSWLV [POMT2] | 2.23 ± 0.57 | 1.73 ± 0.29 |  | 
GDSFSHSSNRIRHLRTHTGERPYK [ZNF263] | 4.28 ± 0.14 | 4.62 ± 0.16 |  | 
GDSGERSEGEAMEICSEPVAASPA [ZNF511] | 5.47 ± 0.24 | 5.52 ± 0.26 |  | 
GEIETIARFGSGPCKTRDDEPVCG [APMAP] | 4.66 ± 0.47 | 5.13 ± 0.27 |  | 
